Source: patent publication EP4628104A1 (Shanghai Chia Tai Tianqing Pharmaceutical Technology …, dated 2024)
Positions count from the first letter of the chain named.

B1: hz28G3-1.1-DDDXd (with DAR of 7.4) (antibody, human IgG1, kappa, DAR 7.4, V domains shown)
VH: QVQLVQSGAEVKKPGASVKVSCKTSGYSFTDYLMLWVRQAPGQGLEWMGNINPYYGRTTYALKFKGRVTMTVDRSTSTVYMELSSLRSEDTAVYYCARDGYSLRNAMDYWGQGTLVTVSS
VL: DIVMTQSPDSLAVSLGERATINCKSSQSLFNSGNQKNYLAWYQQKPGQPPKLLIYGASTRESGVPDRFSGSGSGTDFTLTISSLQAEDVAVYYCQNAHSYPYTFGQGTKVEIKR
modifications: linker-payload MC-GGFG-DDDXd (compound H) conjugated to cysteines of the reduced inter-chain disulfide bonds; positions not given; linker-payload MC-GGFG-DDDXd (compound H) conjugated to cysteines of the reduced inter-chain disulfide bonds; positions not given; DAR 7.4 for the whole molecule
notes: also called anti-CLDN18.2 antibody-drug conjugate
B2: hz28G3-1.3-DDDXd (with DAR of 7.6) (antibody, human IgG1, kappa, DAR 7.6, V domains shown)
VH: B1 VH with P41H, G44S
VL: B1 VL
modifications: linker-payload MC-GGFG-DDDXd (compound H) conjugated to cysteines of the reduced inter-chain disulfide bonds; positions not given; linker-payload MC-GGFG-DDDXd (compound H) conjugated to cysteines of the reduced inter-chain disulfide bonds; positions not given; DAR 7.6 for the whole molecule
notes: as for B1
B3: humanized antibody hz28G3-1.1 (antibody, human IgG1, kappa, V domains shown)
VH: B1 VH
VL: B1 VL
notes: Naked humanized anti-CLDN18.2 antibody, human IgG1 / kappa, expressed in CHO cells
B4: humanized antibody hz28G3-1.3 (antibody, human IgG1, kappa, V domains shown)
VH: B1 VH with P41H, G44S
VL: B1 VL
notes: as for B3

Molecular target: human CLDN18.2 (human)
Experiment: cell-based or functional assay

For B1, which “Killing activity IC50 (CellTiter-Glo), CLDN18.2-overexpressing BxPC-3 cells” value is on record?
Its value is 0.125 nM.

And the “Killing activity IC50 (CellTiter-Glo), CLDN18.2-overexpressing NCI-N87 cells” value?
Its value is 0.0381 nM.

And the “Killing activity IC50 (CellTiter-Glo), CLDN18.2-overexpressing NIH-3T3 cells” value?
The value was 0.44 nM.

How did the “Killing activity IC50 (CellTiter-Glo), CLDN18.2-overexpressing BxPC-3 cells” value turn out when B2 was run?
Its value is 0.0886 nM.

And the “Killing activity IC50 (CellTiter-Glo), CLDN18.2-overexpressing NCI-N87 cells” value?
The value was 0.0337 nM.

And the “Killing activity IC50 (CellTiter-Glo), CLDN18.2-overexpressing NIH-3T3 cells” value?
Its value is 0.281 nM.

Molecular target: T1, human CLDN18.2 (human)
T1 construct: The construct in the CLDN18.2-overexpressing BxPC-3 and NCI-N87 lines is not described; KATOIII and NUGC-4 express CLDN18.2 naturally; All are written here as this one molecule; also called Claudin 18.2; tight junction protein 18.2
T1 sequence (chain, as listed by the source limits assumed): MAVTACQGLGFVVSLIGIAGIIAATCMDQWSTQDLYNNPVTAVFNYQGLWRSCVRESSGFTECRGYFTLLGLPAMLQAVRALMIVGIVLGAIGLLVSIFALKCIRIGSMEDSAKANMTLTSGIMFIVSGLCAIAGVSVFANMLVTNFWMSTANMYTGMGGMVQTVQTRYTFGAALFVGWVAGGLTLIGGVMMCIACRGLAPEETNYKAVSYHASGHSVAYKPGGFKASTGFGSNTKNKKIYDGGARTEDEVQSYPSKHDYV
Experiment: flow cytometry, CLDN18.2-overexpressing NCI-N87 cells

B1 was tested. Which EC50 did it give?
The EC50 was 1.17 nM.

B3 was tested. Which EC50 did it give?
Its EC50 is 2.61 nM.

How did the EC50 turn out when B2 was run?
Its EC50 is 1.02 nM.

For B4, which EC50 is on record?
The EC50 was 2.73 nM.

Molecular target: T1, human CLDN18.2
Experiment: cell-based or functional assay

B1 was tested. Which “Endocytosis EC50, CLDN18.2-overexpressing NCI-N87 cells” value did it give?
Its value is 4.41 nM.

And the “Endocytosis EC50, CLDN18.2-overexpressing NIH-3T3 cells” value?
The value was 3.69 nM.

What does the source list for B3?
Endocytosis EC50, CLDN18.2-overexpressing NCI-N87 cells: 7.84 nM; Endocytosis EC50, CLDN18.2-overexpressing NIH-3T3 cells: 2.57 nM

What does the source list for B2?
Endocytosis EC50, CLDN18.2-overexpressing NCI-N87 cells: 3.24 nM; Endocytosis EC50, CLDN18.2-overexpressing NIH-3T3 cells: 1.85 nM

For B4, which “Endocytosis EC50, CLDN18.2-overexpressing NCI-N87 cells” value is on record?
Its value is 6.68 nM.

What about the “Endocytosis EC50, CLDN18.2-overexpressing NIH-3T3 cells” value of the same binder?
Its value is 4.26 nM.

Molecular target: T1, human CLDN18.2
Experiment: cell-based or functional assay
Remark: another data set of the same source

How did the “CDC activity IC50, CLDN18.2-overexpressing NIH-3T3 cells with human complement” value turn out when B1 was run?
The value was ~0.352 nM.

With B2 as the binder, how does the “CDC activity IC50, CLDN18.2-overexpressing NIH-3T3 cells with human complement” value read?
Its value is ~0.352 nM.

Molecular target: T1, human CLDN18.2
Experiment: flow cytometry, CLDN18.2-overexpressing BxPC-3 cells

For B1, which EC50 is on record?
Its EC50 is 1.13 nM.

Which EC50 does the source give for B3 here?
The EC50 was 2.63 nM.

B2 was tested. Which EC50 did it give?
The EC50 was 0.946 nM.

B4 was tested. Which EC50 did it give?
Its EC50 is 3.42 nM.

Molecular target: T1, human CLDN18.2
Experiment: flow cytometry, CLDN18.2-overexpressing NIH-3T3 cells

With B1 as the binder, how does the EC50 read?
Its EC50 is 0.896 nM.

B3 was tested. Which EC50 did it give?
Its EC50 is 2.27 nM.

With B2 as the binder, how does the EC50 read?
The EC50 was 0.593 nM.

Which EC50 does the source give for B4 here?
Its EC50 is 1.76 nM.
